Reference: PMC7954794, “Protein context shapes the specificity of SH3 domain-mediated interactions in vivo” (Nature Communications, 2021)

Tested on: growth of yeast strains under 51 stress conditions
Test: Growth assays in 51 stress conditions (Fig. 1E-F, S2D, S5B)
Assay type: cell-based, Saccharomyces cerevisiae
Set-up: key to Growth (Fig. S2D) / growth of ABP1 SH3-swapped strains in stress condition: log2 colony size, average of median per strain (growth score)
Details: ABP1 SH3-swapped strains
Method in brief: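 Colony sizes at 74 h on 51 stress media (37 °C) were log2 transformed, corrected for plate effects, and averaged across two plates as per-plate medians (growth score). Strains arrayed in 12 replicates with WT border, grown first on YPD for two days at 30 °C.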

B1: PEX13 (protein, UniProt P80667 1-386, looked up)
Peroxisomal membrane protein …: MSSTAVPRPKPWETSASLEEPQRNAQSLSAMMTSNQQDSRPTEESNNSNSASESAPEVLPRPAALNSSGTYGESNTIPGIYGNSNYGIPYDNNPYSMNSIYGNSIGRYGYGGSYYGNNYGSFYGGGYGAGAGYGMNNGSGLGESTKATFQLIESLIGAVTGFAQMLESTYMATHNSFFTMISVAEQFGNLKEMLGSFFGIFAIMKFLKKILYRATKGRLGIPPKNFAESEGSKNKLIEDFQKFNDSGTINSNEKATRRKISWKPLLFFLMAVFGFPYLLNKFITKLQTSGTIRASQGNGSEPIDPSKLEFARALYDFVPENPEMEVALKKGDLMAILSKKDPLGRDSDWWKVRTKNGNIGYIPYNYIEIIKRRKKIEHVDDETRTH
Bathophenanthroline.0.1uM
  Growth (Fig. S2D): 10.7929
Bathophenanthroline.10uM
  Growth (Fig. S2D): 10.6448
Bathophenanthroline.1uM
  Growth (Fig. S2D): 10.7999
CaCl2.100mM
  Growth (Fig. S2D): 10.8263
CaCl2.250mM
  Growth (Fig. S2D): 10.7201
CaCl2.500mM
  Growth (Fig. S2D): 10.3034
Caffein.10mM
  Growth (Fig. S2D): 10.0127
Caffein.2mM
  Growth (Fig. S2D): 10.9279
CdCl2.100uM
  Growth (Fig. S2D): 9.606
CdCl2.10uM
  Growth (Fig. S2D): 10.8888
CdCl2.50uM
  Growth (Fig. S2D): 9.97
CuSO4.1mM
  Growth (Fig. S2D): 10.4898
CuSO4.5mM
  Growth (Fig. S2D): 8.152
Cycloheximide.0.05.uM
  Growth (Fig. S2D): 11.0541
Cycloheximide.0.2.uM
  Growth (Fig. S2D): 10.6387
Cycloheximide.0.5.uM
  Growth (Fig. S2D): 10.1719
DMSO.2.
  Growth (Fig. S2D): 11.0404
DMSO.6.
  Growth (Fig. S2D): 10.0301
DMSO.8.
  Growth (Fig. S2D): 9.367
Ethanol.2.
  Growth (Fig. S2D): 10.7664
Ethanol.6.
  Growth (Fig. S2D): 10.3235
Ethanol.8.
  Growth (Fig. S2D): 10.0926
Galactose.2.
  Growth (Fig. S2D): 10.787
Glycerol.2.
  Growth (Fig. S2D): 9.849
Hydroxyurea.25mM
  Growth (Fig. S2D): 10.7235
Hygromycin.190uM
  Growth (Fig. S2D): 10.9621
Hygromycin.19uM
  Growth (Fig. S2D): 10.9745
Hygromycin.95uM
  Growth (Fig. S2D): 11.0265
MMS.0.004.
  Growth (Fig. S2D): 10.9502
MMS.0.02.
  Growth (Fig. S2D): 10.7047
MMS.0.04.
  Growth (Fig. S2D): 10.0276
Menadione.100uM
  Growth (Fig. S2D): 10.6371
Menadione.200uM
  Growth (Fig. S2D): 10.4195
Menadione.50uM
  Growth (Fig. S2D): 10.8434
NaCl.0.25M
  Growth (Fig. S2D): 10.6874
NaCl.1M
  Growth (Fig. S2D): 9.71
Nitroquinoline.10uM
  Growth (Fig. S2D): 10.7399
Nitroquinoline.50uM
  Growth (Fig. S2D): 10.726
Nystatin.0.01uM
  Growth (Fig. S2D): 11.0207
Nystatin.0.1uM
  Growth (Fig. S2D): 11.0033
Raffinose.2.
  Growth (Fig. S2D): 10.9918
Rapamycin.10nM
  Growth (Fig. S2D): 9.862
Rapamycin.50nM
  Growth (Fig. S2D): 9.428
SC.pH3
  Growth (Fig. S2D): 10.3898
SC.pH6
  Growth (Fig. S2D): 10.9788
SDS.0.01.
  Growth (Fig. S2D): 10.9752
SDS.0.02.
  Growth (Fig. S2D): 10.9697
SDS.0.05.
  Growth (Fig. S2D): 10.895
Sorbitol.10mM
  Growth (Fig. S2D): 10.9735
Sorbitol.1mM
  Growth (Fig. S2D): 11.0343
Sorbitol.5mM
  Growth (Fig. S2D): 10.9175

B2: MYO5 (protein, UniProt Q04439 1-1219, looked up)
Myosin-5: MAILKRGARKKVHQEPAKRSANIKKATFDSSKKKEVGVSDLTLLSKISDEAINENLKKRFLNATIYTYIGHVLISVNPFRDLGIYTDAVMNEYKGKNRLEVPPHVFAIAESMYYNMKSYNENQCVIISGESGAGKTEAAKRIMQYIAAASSTHTESIGKIKDMVLATNPLLESFGCAKTLRNNNSSRHGKYLEIKFNNQFEPCAGNITNYLLEKQRVVSQIKNERNFHIFYQFTKGASDAYRQTFGVQKPEQYVYTAAAGCISAETIDDLQDYQETLKAMRVIGLGQEEQDQIFRMLAAILWIGNVSFIENEEGNAQVRDTSVTDFVAYLLQIDSQLLIKSLVERIMETNHGMKRGSVYHVPLNIVQADAVRDALAKAIYNNLFDWIVSRVNKSLQAFPGAEKSIGILDIYGFEIFEHNSFEQICINYVNEKLQQIFIQLTLKSEQETYEREKIQWTPIKYFDNKVVCDLIEARRPPGIFAAMNDSVATAHADSNAADQAFAQRLNLFTTNPHFDLRSNKFVIKHYAGDVTYDIDGITDKNKDQLQKDLVELIGTTTNTFLATIFPDTVDRESKRRPPTAGDKIIKSANDLVETLSKAQPSYIRTIKPNETKSPNDYDDRQVLHQIKYLGLQENVRIRRAGFAYRQVFEKFVERFYLLSPHCSYAGDYTWQGDTLDAVKYILQDSSIPQQEYQLGVTSVFIKTPETLFALEHMRDRYWHNMAARIQRAWRRFLQRRIDAATKIQRTIRERKEGNKYEKLRDYGTKVLGGRKERRSMSLLGYRAFMGDYLSCNESKSKGAYIKRQVSIKEKVIFSIHGEALHTKFGRSAQRLKKTFLLTPTTLYIVGQTLVQNAMTYTQDYKIDVRNIQAVSLTNLQDDWVAIKLASSGQPDPLINTYFKTELITHLKRLNDKIQIKIGSAIEYQKKPGKLHSVKCQINESAPKYGDIYKSSTISVRRGNPPNSQVHKKPRKKSSISSGYHASSSQATRRPVSIAAAQHVPTAPASRHSKKPAPPPPGMQNKAATRRSVPNPASTLTASQSNARPSPPTAATRATPAATPAAAAMGSGRQANIPPPPPPPPPSSKPKEPMFEAAYDFPGSGSPSELPLKKGDVIYITREEPSGWSLGKLLDGSKEGWVPTAYMKPHSGNNNIPTPPQNRDVPKPVLNSVQHDNTSANVIPAAAQASLGDGLANALAARANKMRLESDDEEANEDEEEDDW
Bathophenanthroline.0.1uM
  Growth (Fig. S2D): 10.7807
Bathophenanthroline.10uM
  Growth (Fig. S2D): 10.5943
Bathophenanthroline.1uM
  Growth (Fig. S2D): 10.7288
CaCl2.100mM
  Growth (Fig. S2D): 10.8763
CaCl2.250mM
  Growth (Fig. S2D): 10.7748
CaCl2.500mM
  Growth (Fig. S2D): 10.1951
Caffein.10mM
  Growth (Fig. S2D): 10.0771
Caffein.2mM
  Growth (Fig. S2D): 10.9616
CdCl2.100uM
  Growth (Fig. S2D): 9.383
CdCl2.10uM
  Growth (Fig. S2D): 10.8746
CdCl2.50uM
  Growth (Fig. S2D): 9.758
CuSO4.1mM
  Growth (Fig. S2D): 10.0515
CuSO4.5mM
  Growth (Fig. S2D): 7.47
Cycloheximide.0.05.uM
  Growth (Fig. S2D): 11.0185
Cycloheximide.0.2.uM
  Growth (Fig. S2D): 10.5753
Cycloheximide.0.5.uM
  Growth (Fig. S2D): 10.0157
DMSO.2.
  Growth (Fig. S2D): 11.0566
DMSO.6.
  Growth (Fig. S2D): 9.912
DMSO.8.
  Growth (Fig. S2D): 9.351
Ethanol.2.
  Growth (Fig. S2D): 10.6973
Ethanol.6.
  Growth (Fig. S2D): 10.1096
Ethanol.8.
  Growth (Fig. S2D): 9.896
Galactose.2.
  Growth (Fig. S2D): 10.7371
Glycerol.2.
  Growth (Fig. S2D): 8.938
Hydroxyurea.25mM
  Growth (Fig. S2D): 10.701
Hygromycin.190uM
  Growth (Fig. S2D): 10.9824
Hygromycin.19uM
  Growth (Fig. S2D): 10.9737
Hygromycin.95uM
  Growth (Fig. S2D): 11.0723
MMS.0.004.
  Growth (Fig. S2D): 10.9048
MMS.0.02.
  Growth (Fig. S2D): 10.5139
MMS.0.04.
  Growth (Fig. S2D): 9.517
Menadione.100uM
  Growth (Fig. S2D): 10.5627
Menadione.200uM
  Growth (Fig. S2D): 10.4133
Menadione.50uM
  Growth (Fig. S2D): 10.7993
NaCl.0.25M
  Growth (Fig. S2D): 10.7283
NaCl.1M
  Growth (Fig. S2D): 9.177
Nitroquinoline.10uM
  Growth (Fig. S2D): 10.6793
Nitroquinoline.50uM
  Growth (Fig. S2D): 10.4598
Nystatin.0.01uM
  Growth (Fig. S2D): 11.0134
Nystatin.0.1uM
  Growth (Fig. S2D): 10.9398
Raffinose.2.
  Growth (Fig. S2D): 10.9979
Rapamycin.10nM
  Growth (Fig. S2D): 9.833
Rapamycin.50nM
  Growth (Fig. S2D): 9.517
SC.pH3
  Growth (Fig. S2D): 10.3672
SC.pH6
  Growth (Fig. S2D): 10.9549
SDS.0.01.
  Growth (Fig. S2D): 10.9651
SDS.0.02.
  Growth (Fig. S2D): 10.9575
SDS.0.05.
  Growth (Fig. S2D): 10.8115
Sorbitol.10mM
  Growth (Fig. S2D): 10.9933
Sorbitol.1mM
  Growth (Fig. S2D): 11.0521
Sorbitol.5mM
  Growth (Fig. S2D): 10.9248
